Here are results for twelve molecules from US20240116985A1 (published 2024).

Assay [1] has as its target T1, full-length beta-Catenin (Uniprot ID P35222) (Homo sapiens (Human), UniProt P35222 1-781).
T1 construct: also called bCat; B-Catenin
T1 sequence: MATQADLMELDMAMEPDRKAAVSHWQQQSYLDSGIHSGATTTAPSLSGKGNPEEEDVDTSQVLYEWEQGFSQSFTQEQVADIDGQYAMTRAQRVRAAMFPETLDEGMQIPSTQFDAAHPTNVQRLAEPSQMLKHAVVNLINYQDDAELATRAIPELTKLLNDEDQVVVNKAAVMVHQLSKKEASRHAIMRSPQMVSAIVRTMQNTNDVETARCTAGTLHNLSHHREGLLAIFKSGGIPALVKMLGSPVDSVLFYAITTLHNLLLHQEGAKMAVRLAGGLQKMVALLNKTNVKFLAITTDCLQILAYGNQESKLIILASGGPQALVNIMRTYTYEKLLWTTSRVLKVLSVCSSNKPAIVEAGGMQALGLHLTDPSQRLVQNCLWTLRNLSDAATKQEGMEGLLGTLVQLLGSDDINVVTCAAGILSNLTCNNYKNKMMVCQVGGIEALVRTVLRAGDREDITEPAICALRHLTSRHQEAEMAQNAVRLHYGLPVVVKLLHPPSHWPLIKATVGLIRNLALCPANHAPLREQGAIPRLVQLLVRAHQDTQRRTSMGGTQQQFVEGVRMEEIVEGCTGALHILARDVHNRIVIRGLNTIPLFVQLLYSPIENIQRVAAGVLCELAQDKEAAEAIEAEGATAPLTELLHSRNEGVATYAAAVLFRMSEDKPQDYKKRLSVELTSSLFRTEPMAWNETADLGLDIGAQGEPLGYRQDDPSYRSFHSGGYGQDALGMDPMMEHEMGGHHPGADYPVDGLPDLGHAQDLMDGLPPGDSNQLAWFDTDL
In words: fluorescence polarization competition; full-length beta-catenin with 5FAM-TCF4(10-53) probe as competitor. In a few lines: (§1)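 Incubate 60 minutes at 20° C. away from light, then read polarization in duplicate. Fit to 1:1 binding with hill slope.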
For orientation: Polarisation of emitted light reports the rotation of a fluorescent probe.

For assay [2], the target named is T2, full-length beta-Catenin (Uniprot ID P35222) (Homo sapiens (Human), UniProt P35222 1-781).
T2 construct: also called bCat; B-Catenin
T2 sequence: T1 sequence
The assay can be described thus: fluorescence polarization competition; full-length beta-catenin, competitor 5FAM-TCF4(10-53) probe. Summed up: as §1

For assay [3], the target named is T3, B-cat-Halo (NanoBRET construct expressed in HEK293 cells) (UniProt P35222 1-781, HaloTag NanoBRET 618 Ligand bound in the assay).
T3 sequence (looked up): T1 sequence
The assay can be described thus: cell-based or functional assay.

Starred links: 1 amine or outer side, 2 acyl side, 3 side chain; linkers in the order of their positions; H or OH if unused. Positions of bridges follow the written chain, without caps; N, C: chain ends. Non-standard residues stand in square brackets, D forms with d. Primed or numbered codes have the meaning given here. B5(4) = 2,2-bis(4-pentenyl)glycine = 2-amino-2-(pent-4-en-1-yl)hept-6-enoic acid (stitching residue), C=CCCCC(CCCC=C)(N[*:1])C(=O)[*:2]; B5(21) = 2-amino-2-(pent-4-en-1-yl)hept-6-enoic acid, bis(4-pentenyl)glycine (stitching residue), C=CCCCC(CCCC=C)(N[*:1])C(=O)[*:2]; B5″ = 2,2-bis(4-pentenyl)glycine, stitching residue, C=CCCCC(CCCC=C)(N[*:1])C(=O)[*:2]; Phe(2-NO2) = N[C@@H](Cc1ccccc1[N+](=O)[O-])C(=O)O; Phe(3-F) = N[C@@H](Cc1cccc(F)c1)C(=O)O; Bta = N[C@@H](Cc1csc2ccccc12)C(=O)O; αAllylPro = C=CC[C@@]1(C(=O)O)CCCN1; 2Thi = N[C@@H](Cc1cccs1)C(=O)O; S8 = C=CCCCCCC[C@](C)(N)C(=O)O; NMeS = CN[C@@H](CO)C(=O)O

B1: I-760 (peptide)
peptide: Ac-[αAllylPro]DL[B5″]DEAAFN[S8]F[Bta][NMeS]-NH2
modifications: staple 1-4, 4-11
notes: Stapled peptide; also called Ac-PL3-Asp-Leu-B5-Asp-Glu-Ala-Ala-Phe-Asn-S8-Phe-BztA-NMeS-NH2
In general, IC50 refers to the concentration needed to halve the response being measured. A low value points to greater potency. In assay [1], B1 gave an IC50 of 608 nM.

B2: I-441 (peptide)
peptide: Ac-[αAllylPro]DA[B5(21)]DEAAFN[S8][Phe(2-NO2)][Bta]Q-NH2
modifications: staple 1-4, 4-11
notes: Stapled peptide composition
In assay [2], B2 came in with an IC50 of 133 nM.

B3: I-751 (peptide)
peptide: Ac-[αAllylPro]DL[B5(4)]DEAAFN[S8]F[Bta]S-NH2
modifications: staple 1-4, 4-11; also: olefin E/Z not assigned, later-eluting staple isomer
notes: Stapled peptide; shares its description with I-750, later eluting HPLC peak (staple isomer composition); also called Ac-PL3-Asp-Leu-B5-Asp-Glu-Ala-Ala-Phe-Asn-S8-Phe-BztA-Ser-NH2
For the molecule B3, the “NanoBRET Abs IC50” value in assay [3] was found to be 7100 nM. Further, in assay [1], the IC50 came out at 29 nM.

B4: I-758 (peptide)
peptide: Ac-[αAllylPro]DL[B5(4)]DEAAFN[S8]F[Bta][dN]-NH2
modifications: staple 1-4, 4-11; also: later eluting HPLC peak (staple isomer)
notes: Stapled peptide; also called Ac-PL3-Asp-Leu-B5-Asp-Glu-Ala-Ala-Phe-Asn-S8-Phe-BztA-dAsn-NH2
B4: the IC50 in assay [1] came out at 47 nM.

B5: I-755 (peptide)
peptide: Ac-[αAllylPro]DL[B5(4)]DEAAFN[S8]F[Bta][dT]-NH2
modifications: staple 1-4, 4-11; also: later eluting HPLC peak (staple isomer)
notes: Stapled peptide; also called Ac-PL3-Asp-Leu-B5-Asp-Glu-Ala-Ala-Phe-Asn-S8-Phe-BztA-dThr-NH2
As for B5, the IC50 in assay [1] was determined as 88 nM.

B6: I-757 (peptide)
peptide: Ac-[αAllylPro]DL[B5(4)]DEAAFN[S8]F[Bta][dN]-NH2
modifications: staple 1-4, 4-11; also: earlier eluting HPLC peak (staple isomer)
notes: Stapled peptide; same description as I-758, earlier eluting HPLC peak (staple isomer composition); also called Ac-PL3-Asp-Leu-B5-Asp-Glu-Ala-Ala-Phe-Asn-S8-Phe-BztA-dAsn-NH2
Molecule B6 showed an IC50 in assay [1] of 64 nM.

B7: I-752 (peptide)
peptide: Ac-[αAllylPro]DL[B5(4)]DEAAFN[S8]F[Bta]N-NH2
modifications: staple 1-4, 4-11; also: olefin E/Z not assigned, earlier-eluting staple isomer
notes: Stapled peptide; also called Ac-PL3-Asp-Leu-B5-Asp-Glu-Ala-Ala-Phe-Asn-S8-Phe-BztA-Asn-NH2
Consider B7, for which, in assay [3], the “NanoBRET Abs IC50” value amounted to 9900 nM. Further, the IC50 in assay [1] was 16 nM.

B8: I-754 (peptide)
peptide: XDLXDEAAFNXFXT
modifications: not fully specified; Ac-PL3-Asp-Leu-B5-Asp-Glu-Ala-Ala-Phe-Asn-S8-Phe-BztA-dThr-NH2: N-terminal acetyl; C-terminal amide; PL3 at 1, B5 at 4, S8 at 11 (stapled 1-4 and 4-11 by olefin metathesis); BztA at 13; D-Thr at 14
notes: as for B5
The molecule B8 came in with an IC50 in assay [1] of 115 nM.

B9: I-753 (peptide)
peptide: Ac-[αAllylPro]DL[B5(4)]DEAAFN[S8]F[Bta]N-NH2
modifications: staple 1-4, 4-11; also: olefin E/Z not assigned, later-eluting staple isomer
notes: as for B7
For the molecule B9, the “NanoBRET Abs IC50” value in assay [3] was 10000 nM. Also, in assay [1], the IC50 turned out to be 14 nM.

B10: I-450 (peptide)
peptide: Ac-[αAllylPro]DA[B5(21)]DEAA[2Thi]Q[S8][Phe(3-F)]WQ-NH2
modifications: staple 1-4, 4-11
notes: Stapled peptide composition
For B10, the IC50 in assay [2] stood at 3720 nM.

B11: I-454 (peptide)
peptide: Ac-[αAllylPro]DA[B5(21)]DEAA[Phe(3-F)]N[S8]F[Bta]Q-NH2
modifications: staple 1-4, 4-11
notes: Stapled peptide composition
As to B11, the IC50 in assay [2] stood at 125 nM.

B12: I-756 (peptide)
peptide: Ac-[αAllylPro]DL[B5(4)]DEAAFN[S8]F[Bta][dS]-NH2
modifications: staple 1-4, 4-11
notes: Stapled peptide; also called Ac-PL3-Asp-Leu-B5-Asp-Glu-Ala-Ala-Phe-Asn-S8-Phe-BztA-dSer-NH2
Regarding B12, in assay [1], the IC50 was 56 nM.
